In patent KR20230168598A (dated 2023):

T1: 재조합 인간 TIGIT 단백질 (acrobiosystems, China) (human, UniProt Q495A1 22-141)
T1 construct: Bought recombinant protein; also called hTIGIT
T1 sequence: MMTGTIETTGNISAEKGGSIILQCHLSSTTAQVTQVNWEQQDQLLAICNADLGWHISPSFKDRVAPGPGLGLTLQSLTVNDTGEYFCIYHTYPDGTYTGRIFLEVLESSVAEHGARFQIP

B1: 마우스 항-TIGIT 단클론 항체 2B7 (mouse backbone mIgG1) (antibody, V domains shown)
VH: EVQLQQSGPELVKPGASVKISCKTSGSTFTEYTMHWVKQSHGKSLEWIGGLNPNNGGTSYNQRFKDRATLTVDKSSSTAYMELRSLTSEDSAVYYCTRGTYYDYSFAYWGQGTLVTVSA
VL: DIVMTQSHKFMSTSVGDRVSITCKASHYVSTAVAWYQQKPGQSPKLLIYSPSYRYTGVPDRFTGSGSGTDFTFTISSVQAEDLAVYYCHQHYSTPWTFGGGTKLEIK
notes: also called 항-TIGIT 2B7 항체; 클론 2B7
B2: 마우스 항-TIGIT 단클론 항체 3F8 (mouse backbone mIgG1) (antibody, V domains shown)
VH: EVQLQQSGPELVKPGASMKISCKASGYSFTDYIMNWVKQSHGKNLEWIGLSIPYNGGTSYNQKFEGKATLTVDKSSSTAYMELLSLTSEDSAVYYCARGIKGYFAMDYWGQGTSVTVSS
VL: DVVVTQTPLSLPVSFGDQVSISCRSSQSLVNSFGKTYLSWFLHKPGQSPQLIMYGVSNRFSGVPDRFSGSGSGTDFTLKISTIKPEDLGMYYCLQGTHQPWTFGGGTKLEIK
notes: also called 항-TIGIT 3F8 항체; 클론 3F8

Target: T1, 재조합 인간 TIGIT 단백질 (acrobiosystems, China)
Assay: SPR (Biacore T200), multi-cycle kinetics, antibody captured, TIGIT as analyte, 1:1 model

Binder | Kd [nM] | koff [s⁻¹] | kon [M⁻¹ s⁻¹]
B1 | 1.89 | 0.000445 | 235000
B2 | 0.986 | 0.000216 | 219000
